US20240174744A1 (SCIRHOM, published 2024)

Target: T1, hiR2-FL-WT-FLAG (human iRhom2 full length wild type C-terminally tagged with the triple-FLAG epitope) (human, UniProt Q6PJF5 1-856)
T1 construct: also called expressed by MEF-DKO-hiR2-FL-WT-FLAG cells
T1 sequence: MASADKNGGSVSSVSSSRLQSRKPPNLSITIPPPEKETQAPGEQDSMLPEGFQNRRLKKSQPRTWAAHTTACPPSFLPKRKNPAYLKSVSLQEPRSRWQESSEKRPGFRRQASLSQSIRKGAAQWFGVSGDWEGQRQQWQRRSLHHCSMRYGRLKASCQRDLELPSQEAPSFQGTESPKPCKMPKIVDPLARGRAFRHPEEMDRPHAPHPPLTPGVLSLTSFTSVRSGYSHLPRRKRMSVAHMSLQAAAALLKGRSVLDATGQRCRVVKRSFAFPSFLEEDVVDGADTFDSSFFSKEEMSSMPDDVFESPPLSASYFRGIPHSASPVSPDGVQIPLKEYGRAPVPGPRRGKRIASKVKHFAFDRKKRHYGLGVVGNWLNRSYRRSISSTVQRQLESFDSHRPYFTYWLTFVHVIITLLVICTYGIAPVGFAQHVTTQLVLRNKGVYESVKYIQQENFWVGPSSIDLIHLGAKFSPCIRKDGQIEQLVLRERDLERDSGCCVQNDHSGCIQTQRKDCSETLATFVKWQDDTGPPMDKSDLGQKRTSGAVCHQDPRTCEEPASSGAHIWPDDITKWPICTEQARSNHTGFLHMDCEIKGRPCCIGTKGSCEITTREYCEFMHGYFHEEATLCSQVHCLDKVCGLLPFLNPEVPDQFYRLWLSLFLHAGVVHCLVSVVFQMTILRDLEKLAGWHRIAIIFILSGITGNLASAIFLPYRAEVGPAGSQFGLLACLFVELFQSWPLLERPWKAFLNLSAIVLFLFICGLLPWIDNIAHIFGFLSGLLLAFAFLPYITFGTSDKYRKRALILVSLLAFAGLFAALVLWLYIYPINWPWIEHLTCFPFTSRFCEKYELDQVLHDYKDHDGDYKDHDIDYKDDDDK
Experiment: FACS, MEF-DKO-hiR2-FL-WT-FLAG cells, 3 µg/ml
Protocol: In brief, immortalized MEF-DKO-EV control cells, MEF-DKO-hiR2-FL-WT-FLAG cells and MEF-DKO-miR2-FL-WT-FLAG cells were harvested with 10 mM EDTA in PBS, washed and resuspended in FACS buffer (PBS, 3% FBS, 0.05% sodium azide), and seeded in Nunc U-bottom 96-well plates (Thermo Fisher Scientific, USA) at approximately 3×10⁵ cells per well. To pellet cells and remove supernatants, the plates were centrifuged at 1,500 rpm and 4° C. for 3 minutes. For primary staining, cells were resuspended in 100 μl per well of either FACS buffer alone (controls), mouse monoclonal anti-FLAG IgG (Sigma-Aldrich, USA) at 3 μg/ml FACS buffer or the antibodies of the present disclosure also at 3 μg/ml FACS buffer and incubated on ice for 1 hour. Afterwards, plates were centrifuged at 1,500 rpm and 4° C. for 3 minutes and washed twice with 200 μl per well of FACS buffer. For secondary staining, cells were spun down and resuspended in 100 μl per well of PE-conjugated goat anti-mouse IgG F(ab′)2 detection fragment (Dianova, Germany) diluted 1:100 in FACS buffer. Protected from light, the cell suspensions were incubated on ice for 1 hour. Plates were then centrifuged at 1,500 rpm and 4° C. for 3 minutes and washed three times with 200 μl per well of FACS buffer. Finally, cells were resuspended in 150 μl per well of FACS buffer and analyzed using a BD Accuri™ C6 Plus flow cytometer (Becton Dickinson, Germany).

Row | Binder | binding result
1 | antibody 51 (antibody, V domains shown, Mouse IgG, kappa light chain; also called clone #51) VH: QVQLQQSGAELVKPGASVKISCKASGYTFSNYWMNWVKQRPGKGLEWIGQIYPGDGDTKYNGKFKNKATLTADKSSSTAYMQFSSLTSEDSAVYFCARGDLVFVYWGLGTLVTVSA VL: DVQITQSPSYLAVSPGETITINCRASKNIRKYLAWYQEKPGKTNKLLIYSGSTSQSGVPSRFSGSGSGTDFTLTISSLEPEDFAMYYCQQHNEYPYTFGGGTKLEIK | binds
2 | antibody 47 (antibody, V domains shown, Mouse IgG, kappa light chain; also called clone #47) VH: QVQLQQSGAELVRPGTSVKVSCKASGYAFTNYLIEWVKQRPGQGLEWIGVINPGSGFTNYNEKFKGKAILNADKSSSTAYMQLISLTSEDSAVYFCARDLKRAMDHWGQGTSVTVSS VL: DIQMTQSPASQSASLGESVTITCLASQTIGTWLAWYQQKPGKSPQLLIHAATSLADGVPSRFSGSGSGTKFSFKISSLQAEDFVSYYCQQIYSSPYTFGGGTKLEIK | binds
